This is an account of results in patent US6602687B1, “DNA encoding human ciliary neurotrophic factor and method for producing the protein encoded thereby” (Regeneron Pharmaceuticals, Inc., priority 1989, dated 2003).

Experiment [1] deals with chick embryonic spinal motorneurons. Nature of the experiment: Survival of chick embryonic spinal motorneurons in culture. The experiment is classed as cell-based. The arrangement: key to Survival: −: not significantly different from control (survival: 8.3 ± 3.8%, mean ± SD, n = 18); ±: about 15-20% (statistically significant from each blank control, p < 0.01); + +: about 35-55%; + ++: about 55-75%. As to conditions: for Survival: after 3 days in culture, one concentration per molecule, Table VI, CNTF rat, rec.; for survival effect on motoneurons: supramaximal concentrations, NT-3 produced by transfected Cos-cells. How it is done: Motorneuron columns were dissected under a stereomicroscope from the lumbar part of the spinal cord of chick embryos on the 6th day of embryonic development and stored in cold calcium and magnesium-free Hanks balanced salt solution supplemented with glucose (4 g/l) (HBSS). The tissues were washed with HBSS and treated with 0.03% trypsin in HBSS at 37° C. for 20 min with gentle shaking, rinsed with cold HBSS and triturated mildly in 3 steps of 8-passage agitation in 1 ml of cold 0.1% soybean trypsin inhibitor (Sigma) in HBSS through a fire-polished siliconized Pasteur pipette. Each supernatant cell suspension was filtered through 50 μm-Nylon mesh, pooled and layered onto 4 ml of cold 6.8% metrizamide (Fluka) in HBSS-25 mM HEPES (pH7.4) in a 12 ml-siliconized conical glass tube. The tube was centrifuged at 400 g for 15 min at 4° C. and the intermediate layer (0.5 ml) was collected into another siliconized tube containing 6.5 ml of cold culture medium (a mixture of glucose (4 g/l)-supplemented Leibovitz's L-15 medium (Gibco), 0.15 M sodium bicarbonate, heat-inactivated and filtered horse serum and penicillin G (10^5 units/ml) at the ratio of 75:15:10:0.1, freshly prepared and buffered with 5% CO2.) After centrifugation at 100×g for 7 min at 4° C., the supernatant was removed and the cells were gently resuspended in culture medium and plated in Greiner 4-well culture dishes (well diameter, 10 mm; C. A. Greiner und Sohne GmbH, Nurtingen, West Germany) at 1000-2000 cells/well. The dishes had been precoated with poly-DL-ornithine (Sigma, 0.5 mg in 0.15 M sodium borate buffer (pH 8.3) overnight at 4° C., rinsed twice with phosphate-buffered saline (PBS) and subsequently coated with laminin (Gibco; 10 μg/ml in the serum-depleted culture medium) and placed in a 5% CO2-incubator until cell plating (5-6 hrs). Cells were incubated at 37° C. in a humidified 5% CO2- and 95% air-incubator. Samples were added one hr after plating and the culture medium changed after 24 hrs and 72 hrs. The initial cell numbers were counted 3 hrs after plating.
In some experiments motor neurons were retrogradely labeled with a fluorescent dye in vivo before cell preparation (U. Dohrman et al., 1986, Dev. Biol. 118:209-221) to identify the motor neuron cell population. A small hole was made in the shell of eggs which had been incubated for 5 days. Small pieces of rhodamine isothiocyanate crystals (Sigma) were inserted at two or three places into each hind limb thigh and the egg hole was sealed with a cellophane tape. The eggs were incubated for another 24 hrs. Some of the operated embryos were then processed for frozen sections after formaldehyde fixation. […] The other embryos were used for cell preparation using the method described above (18.1.1). After 5 hrs in culture cells were rinsed with warm HBSS, fixed with 4% formaldehyde in PBS at room temperature for 20 min, rinsed with PBS and then mounted in glycerol-PBS (1:1) with glass coverslips. Of the total cells approximately 83% were labeled and identified as motorneurons (FIG. 42.) Most of these labeled motorneurons were large cells and the rest were intermediate-size cells. No small cells were labeled. On the other hand, in experiments in which cells were not labeled with a fluorescent dye about 70% of the total cells were large phase-bright cells with round cell somas, about 20% were intermediate-size neurons (most of them may be motorneurons) and about 10% were small immature neurons (they have neuron-like processes with growth cones but have phase-dark semi-flat cell somas). Non-neuronal cells were either not present or accounted for less than 2%. Taken together, one may conclude that at least 83% of the cells are motorneurons while the remainder consists of non-labeled motorneurons, a small number of unidentified intermediate-size neurons and about 10% immature small neurons. […]

Experiment [2] concerns E8 chick ciliary ganglion neurons. Nature of the experiment: Survival of dissociated E8 chick ciliary ganglion neurons. The experiment is classed as cell-based. An excerpt:
Ciliary neurotrophic factor activity may be evaluated using any CNTF-sensitive in vivo or in vitro system known in the art. For example, and not by way of limitation, in vitro systems have been developed which measure CNTF activity by quantitating 24-hour survival of embryonic (E8) chick ciliary ganglion (CG) neurons in monolayer cultures.
For example, ciliary ganglia may be collected from E8 chick embryos, dissociated (yielding approximately 20,000 cells per ganglion) and then diluted in HEBM medium containing 20 percent horse serum as described in Varon et al. (1979, Brain Res. 173:29-45). About fifty microliters of cell suspension containing neurons (2,000 cells) may then be seeded into microliter dishes and putative CNTF activity may be added. Culture plates may then be maintained at 37° C. in 5% CO2 for 24 hours, after which the cultures may be fixed by the addition of 200 μl 2 per cent glutaraldehyde in HEBM medium, and the number of surviving neurons may be determined visually by direct count under phase contrast microscopy.
Chick embryo ciliary ganglion cultures were created and maintained according to the method set forth in (Hughes et al., 1988, Nature 335 : 70-73).
(§1) Biological activity of recombinant CNTF was assayed on explants of chick embryo dorsal root ganglia (DRG) and dissociated cultures of ciliary ganglion (CG) neurons as described in Lindsay and Rohrer (1985, Devel. Biol 112:30-48). Briefly, DRG were dissected from chick embryos of 10 days incubation (E10) and 5-6 ganglia were explanted in 1 ml of a collagen gel matrix in 35 mm tissue culture dishes. After the gel had set, 1 ml of tissue culture growth medium F14 (Imperial Labs., U.K.) supplemented with 5% heat-inactivated horse serum (GIBCO) was added before adding human CNTF (1-20 l) to a final concentration of 100 pg to 100 ng/ml. CG were dissected from E8 chick embryos and incubated for 30 min in 0.25% trypsin (Worthington) in calcium- and magnesium-free phosphate buffered saline. The ganglia were then washed three times in F14 medium containing 5% horse serum before being dissociated to a single cell suspension by trituration through the bore of a Pasteur pipette. Enrichment for CG neurons was achieved by plating the cell suspension for 3.5 hr in a 60 mm dish, during which non-neuronal cells (fibroblasts and Schwann cells) attached firmly to the plastic while phase-bright neurons remained in suspension. The purified neurons were plated on polyornithine-laminin-coated 35 mm culture dishes at 8,000-10,000 neurons/dish. In explant cultures CNTF activity was determined by assessing the extent of fiber outgrowth in treated cultures compared to controls. Fiber outgrowth was scored on a scale of 0 to 5+, by comparing cultures to photographs of a dose-response of explanted DRG and NGF. In dissociated CG neuron cultures, CNTF activity was determined by counting at 48 hr the percentage of process-bearing neurons in control and CNTF-treated cultures. In all cases results were derived from triplicate cultures.

Experiment [3] concerns dorsal root ganglia and/or dissociated ciliary neurons. Nature of the experiment: Biological activity of modified and truncated CNTF proteins (rapid bacterial extracts). The experiment is classed as cell-based, chick. Conditions: soluble protein extracted from induced bacteria hosting each plasmid; compared with full length parental protein. How it is done:
Samples for gel electrophoresis were prepared by resuspending cell pellets from 0.5 ml culture OD590=2 in 0.16 ml lysis buffer (100 mM TrisHCl, 10% glycerol, 4% sodium dodecyl sulfate, 1 mM dithiothreitol, 0.5 mg/ml bromophenol blue, pH 6.8) and boiling for 5 minutes.
as §1
Biological activity was assayed on dorsal root ganglia and/or dissociated ciliary neurons was determined as described in section 12.1.6. Soluble protein was extracted from induced bacteria hosting each plasmid by the “rapid” protein extraction method described in section 12.1.3.

B1: IFNc: IFNc (rat, rec.) (protein, UniProt P01581 23-156, looked up)
Interferon gamma: QGTLIESLESLKNYFNSSSMDAMEGKSLLLDIWRNWQKDGNTKILESQIISFYLRLFEVLKDNQAISNNISVIESHLITNFFSNSKAKKDAFMSIAKFEVNNPQIQHKAVNELIRVIHQLSPESSLRKRKRSRC
As for B1, in experiment [1], the Survival result was “−” and the “survival effect on motoneurons” value is “no discernable effect”.

B2: EGF: EGF (mouse) (protein, UniProt P01132 29-1217, looked up)
Pro-epidermal growth factor: WQTGNCQPGPLERSERSGTCAGPAPFLVFSQGKSISRIDPDGTNHQQLVVDAGISADMDIHYKKERLYWVDVERQVLLRVFLNGTGLEKVCNVERKVSGLAIDWIDDEVLWVDQQNGVITVTDMTGKNSRVLLSSLKHPSNIAVDPIERLMFWSSEVTGSLHRAHLKGVDVKTLLETGGISVLTLDVLDKRLFWVQDSGEGSHAYIHSCDYEGGSVRLIRHQARHSLSSMAFFGDRIFYSVLKSKAIWIANKHTGKDTVRINLHPSFVTPGKLMVVHPRAQPRTEDAAKDPDPELLKQRGRPCRFGLCERDPKSHSSACAEGYTLSRDRKYCEDVNECATQNHGCTLGCENTPGSYHCTCPTGFVLLPDGKQCHELVSCPGNVSKCSHGCVLTSDGPRCICPAGSVLGRDGKTCTGCSSPDNGGCSQICLPLRPGSWECDCFPGYDLQSDRKSCAASGPQPLLLFANSQDIRHMHFDGTDYKVLLSRQMGMVFALDYDPVESKIYFAQTALKWIERANMDGSQRERLITEGVDTLEGLALDWIGRRIYWTDSGKSVVGGSDLSGKHHRIIIQERISRPRGIAVHPRARRLFWTDVGMSPRIESASLQGSDRVLIASSNLLEPSGITIDYLTDTLYWCDTKRSVIEMANLDGSKRRRLIQNDVGHPFSLAVFEDHLWVSDWAIPSVIRVNKRTGQNRVRLQGSMLKPSSLVVVHPLAKPGADPCLYRNGGCEHICQESLGTARCLCREGFVKAWDGKMCLPQDYPILSGENADLSKEVTSLSNSTQAEVPDDDGTESSTLVAEIMVSGMNYEDDCGPGGCGSHARCVSDGETAECQCLKGFARDGNLCSDIDECVLARSDCPSTSSRCINTEGGYVCRCSEGYEGDGISCFDIDECQRGAHNCGENAACTNTEGGYNCTCAGRPSSPGLSCPDSTAPSLLGEDGHHLDRNSYPGCPSSYDGYCLNGGVCMHIESLDSYTCNCVIGYSGDRCQTRDLRWWELRHAGYGQKHDIMVVAVCMVALVLLLVLGMWGTYYYRTRKQLSNPPKNPCDEPSGSVSSSGPNSSSGAAVASCPQPWFVVLEKHQDPKNGSLPADGTNGAVVDAGLSPSLQLGSVHLTSWRQKPHIDGMGTGQSCWIPPSSDRGPQEIEGNSHLPSYRPVGPEKLHSLQSANGSCHERAPDLPRQTEPVQ
modifications: Pro-epidermal growth factor
Regarding B2, in experiment [1], the Survival result was “−” and the “survival effect on motoneurons” value is “no discernable effect”.

B3: CNTF purified from rat sciatic nerve: native CNTF protein purified from rat sciatic nerve (protein, UniProt P20294 1-200, looked up)
Ciliary neurotrophic factor: MAFAEQTPLTLHRRDLCSRSIWLARKIRSDLTALMESYVKHQGLNKNINLDSVDGVPVASTDRWSEMTEAERLQENLQAYRTFQGMLTKLLEDQRVHFTPTEGDFHQAIHTLMLQVSAFAYQLEELMVLLEQKIPENEADGMPATVGDGGLFEKKLWGLKVLQELSQWTVRSIHDLRVISSHQMGISALESHYGAKDKQM
Take B3: the “lowest concentration at which activity was detectable” value in experiment [2] (dissociated, neuron-enriched E8 chick ciliary ganglion cultures) is 5 pg/mL. Moreover, in experiment [2] (neuronal survival, E8 chick ciliary ganglion cultures), the concentration for a half-maximal effect (EC50) was determined as 0.08 ng/mL.

B4: pRPN108: hCNTF with alanine in place of cysteine at amino acid 17, encoded in plasmid pRPN108 (protein, UniProt P26441 1-200, looked up, variant C17A)
Ciliary neurotrophic factor: MAFTEHSPLTPHRRDLASRSIWLARKIRSDLTALTESYVKHQGLNKNINLDSADGMPVASTDQWSELTEAERLQENLQAYRTFHVLLARLLEDQQVHFTPTEGDFHQAIHTLLLQVAAFAYQIEELMILLEYKIPRNEADGMPINVGDGGLFEKKLWGLKVLQELSQWTVRSIHDLRFISSHQTGIPARGSHYIANNKKM
Consider B4, for which the biological activity result in experiment [3] is recorded as “as active as the full length protein”.

B5: bNGF: bNGF (mouse) (protein, UniProt P01139 122-241, looked up)
Beta-nerve growth factor: SSTHPVFHMGEFSVCDSVSVWVGDKTTATDIKGKEVTVLAEVNINNSVFRQYFFETKCRASNPVESGCRGIDSKHWNSYCTTTHTFVKALTTDEKQAAWRFIRIDTACVCVLSRKATRRG
modifications: Beta-nerve growth factor
For B5, in experiment [1], the Survival entry is given as “−” and the “survival effect on motoneurons” value is on record as “no discernable effect”.

B6: NT-3: neurotrophic molecule of the NGF-BDNF gene family, produced by transfected Cos-cells (protein, UniProt P20783 139-257, looked up)
Neurotrophin-3: YAEHKSHRGEYSVCDSESLWVTDKSSAIDIRGHQVTVLGEIKTGNSPVKQYFYETRCKEARPVKNGCRGIDDKHWNSQCKTSQTYVRALTSENNKLVGWRWIRIDTSCVCALSRKIGRT
As to B6, in experiment [1], the Survival result is reported as “−” and the “survival effect on motoneurons” value is “did not appear to have a survival effect”.

B7: IL-6: IL-6 (mouse, rec.) (protein, UniProt P08505 25-211, looked up)
Interleukin-6: FPTSQVRRGDFTEDTTPNRPVYTTSQVGGLITHVLWEIVEMRKELCNGNSDCMNNDDALAENNLKLPEIQRNDGCYQTGYNQEICLLKISSGLLEYHSYLEYMKNNLKDNKKDKARVLQRDTETLIHIFNQEVKDLHKIVLPTPISNALLTDKLESQKEWLRTKTIQFILKSLEEFLKVTLRSTRQT
Regarding B7, in experiment [1], the Survival result is given as “−” and the “survival effect on motoneurons” value is on record as “no discernable effect”.
